According to patent EP4722243A1 (Beijing Dongfang Biotech Co. Ltd., dated 2026):
Changes are numbered by the printed parent chain.

Assays:
[1] = target: T1, human IL-11 (human, UniProt P20809 22-199, limits assumed); experiment: cell-based or functional assay
T1 sequence (looked up): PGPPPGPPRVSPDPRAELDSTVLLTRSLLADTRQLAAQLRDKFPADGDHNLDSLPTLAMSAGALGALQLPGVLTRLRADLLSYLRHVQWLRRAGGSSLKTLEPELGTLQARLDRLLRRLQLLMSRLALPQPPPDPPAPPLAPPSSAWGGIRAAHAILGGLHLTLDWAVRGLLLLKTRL

[2] = target: T2, IL-11-mFc ligand protein (human, UniProt P20809 22-199); experiment: cell-based or functional assay
T2 sequence (looked up): T1 sequence (looked up)

[3] = target: T1, human IL-11; experiment: ELISA, IL-11 coated, goat anti-human IgG Fab HRP detection
[4] = target: T3, rat IL-11 (rat, UniProt Q99MF5 22-199, limits assumed); experiment: ELISA, rat IL-11 coated, goat anti-human IgG Fab HRP detection
T3 construct: Bought reagent; also called IL-11 (Rat)
T3 sequence (looked up): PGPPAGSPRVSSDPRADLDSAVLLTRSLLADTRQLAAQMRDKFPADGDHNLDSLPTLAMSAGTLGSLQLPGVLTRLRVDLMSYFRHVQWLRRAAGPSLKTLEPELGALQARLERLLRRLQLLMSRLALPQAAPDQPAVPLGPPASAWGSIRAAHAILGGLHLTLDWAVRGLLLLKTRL

[5] = target: T1, human IL-11; experiment: ELISA, human IL-11 coated, goat anti-human IgG Fab HRP detection
[6] = target: T4, mouse IL-11 (mouse, UniProt P47873 22-199, limits assumed); experiment: ELISA, mouse IL-11 coated, goat anti-human IgG Fab HRP detection
T4 construct: Bought reagent; also called IL-11 (Mouse)
T4 sequence (looked up): T3 sequence (looked up) with N50S, F84L, A94G, A137V, V138I

[7] = target: T5, cynomolgus monkey IL-11 (cynomolgus monkey, UniProt P20808 22-199, limits assumed); experiment: ELISA, cynomolgus monkey IL-11 coated, goat anti-human IgG Fab HRP detection
T5 construct: Bought reagent; also called IL-11 (Cynomolgus)
T5 sequence (looked up): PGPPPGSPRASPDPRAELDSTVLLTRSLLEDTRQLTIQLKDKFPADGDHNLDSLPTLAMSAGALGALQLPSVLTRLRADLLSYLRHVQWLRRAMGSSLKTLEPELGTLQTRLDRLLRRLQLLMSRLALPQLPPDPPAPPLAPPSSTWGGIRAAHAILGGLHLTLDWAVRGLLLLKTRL

[8] = target: T2, IL-11-mFc ligand protein; experiment: flow cytometry: inhibition of IL-11-mFc binding to GP130 on BaF/3-GP130 cells, goat anti-mouse IgG-FITC detection
[9] = target: T2, IL-11-mFc ligand protein; experiment: flow cytometry: inhibition of IL-11-mFc binding to IL-11RA on BaF/3-IL-11RA cells, goat anti-mouse IgG-FITC detection

B1: humanized antibody molecule HA-I-A (antibody, human IgG1, kappa, L234A L235A, V domains shown)
VH: QVQLVESGGGLVKPGGSLRLSCAASGFTFSDYYMFWVRQAPGKGLEWVATISDGGTYTYYPDSVKGRFTISRDNAKNSLYLQMNSLRAEDTAVYYCARDGGYVSSPEAMDYWGQGTLVTVSS
VL: DIVLTQSPSSLSASVGDRVTITCRASQDISNYLNWYQQKPGKAPKLLIYYTSRLHSGVPSRFSGSGSGTDFTFTISSLQPEDIATYYCQQGNTLPPTFGGGTKVEIKR
notes: anti-IL-11 monoclonal antibody HA-I-A
[1]
  IC50, reporter gene (BaF/3-GP130-STAT3-Luc cells stimulated with IL-11 protein, luciferase): 0.045 µg/mL
[2]
  IC50 of inhibition of TIMP-1 secretion by MRC-5 cells stimulated with IL-11-mFc: 0.101 µg/mL
[3]
  EC50: 0.0204 µg/mL
[4]
  EC50: 0.0179 µg/mL
[5]
  EC50: 0.0106 µg/mL
[6]
  EC50: 0.0139 µg/mL
[7]
  EC50: 0.239 µg/mL
[8]
  IC50: 23.5 µg/mL
[9]
  IC50: 1.68 µg/mL
